Reference: publication PMC7286819, “SIRT7 activates p53 by enhancing PCAF-mediated MDM2 degradation to arrest the cell cycle” (Oncogene, 2020)

Biological target: T1, Full-length His-PCAF fusion protein (UniProt Q92831 1-832)
T1 construct: PCAF, full length, cDNA cloned into pET-28a; source: E. coli, purified
Experiment: pull-down; GST or GST-SIRT7 on glutathione-Sepharose 4B beads incubated with 6xHis-tagged PCAF from E. coli at 4 C overnight; washed with TEN buffer (0.5% NP-40, 20 mM Tris pH 7.4, 0.1 mM EDTA, 300 mM NaCl); immunoblot
Settings: both partners purified

T1 sequence (Q92831 whole entry, the tested form may be a part): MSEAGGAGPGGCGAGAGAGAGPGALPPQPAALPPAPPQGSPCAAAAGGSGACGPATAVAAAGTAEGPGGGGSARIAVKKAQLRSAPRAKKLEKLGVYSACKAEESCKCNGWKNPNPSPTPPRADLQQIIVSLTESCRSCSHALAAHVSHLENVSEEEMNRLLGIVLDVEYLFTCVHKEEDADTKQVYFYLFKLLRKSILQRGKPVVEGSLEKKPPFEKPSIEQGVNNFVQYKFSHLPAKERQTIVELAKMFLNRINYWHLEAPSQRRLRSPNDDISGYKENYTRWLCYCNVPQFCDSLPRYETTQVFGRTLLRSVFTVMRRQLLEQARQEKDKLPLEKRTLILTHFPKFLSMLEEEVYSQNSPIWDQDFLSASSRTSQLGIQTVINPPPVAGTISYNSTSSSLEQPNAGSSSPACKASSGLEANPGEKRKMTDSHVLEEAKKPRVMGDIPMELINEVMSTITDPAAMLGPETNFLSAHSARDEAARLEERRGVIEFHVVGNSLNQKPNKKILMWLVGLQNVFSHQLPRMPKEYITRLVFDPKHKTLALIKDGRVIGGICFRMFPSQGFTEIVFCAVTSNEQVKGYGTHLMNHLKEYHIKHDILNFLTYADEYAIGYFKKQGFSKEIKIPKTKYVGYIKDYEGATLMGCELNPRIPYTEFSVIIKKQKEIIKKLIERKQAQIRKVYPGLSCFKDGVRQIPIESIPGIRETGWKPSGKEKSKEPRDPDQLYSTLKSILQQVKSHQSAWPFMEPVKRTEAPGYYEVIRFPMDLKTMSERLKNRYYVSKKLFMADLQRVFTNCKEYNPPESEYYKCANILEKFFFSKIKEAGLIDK

binding result: binds
B1: full-length GST-tagged SIRT7 (natural protein, UniProt Q9NRC8 1-400, looked up)
chain: MAAGGLSRSERKAAERVRRLREEQQRERLRQVSRILRKAAAERSAEEGRLLAESADLVTELQGRSRRREGLKRRQEEVCDDPEELRGKVRELASAVRNAKYLVVYTGAGISTAASIPDYRGPNGVWTLLQKGRSVSAADLSEAEPTLTHMSITRLHEQKLVQHVVSQNCDGLHLRSGLPRTAISELHGNMYIEVCTSCVPNREYVRVFDVTERTALHRHQTGRTCHKCGTQLRDTIVHFGERGTLGQPLNWEAATEAASRADTILCLGSSLKVLKKYPRLWCMTKPPSRRPKLYIVNLQWTPKDDWAALKLHGKCDDVMRLLMAELGLEIPAYSRWQDPIFSLATPLRAGEEGSHSRKSLCRSREEAPPGDRGAPLSSAPILGGWFGRGCTKRTKRKKVT
notes: SIRT7, full length, cDNA cloned into pGEX-4T1; also called GST-SIRT7; full-length (FL) SIRT7; source: E. coli, purified on glutathione-Sepharose 4B beads
